Results on one molecule are retold here after publication PMC12392091.

This series deals with T1, DdaA (Ab) (Acinetobacter baumannii ATCC 17978, UniProt V5VBS3 1-335).
T1 sequence: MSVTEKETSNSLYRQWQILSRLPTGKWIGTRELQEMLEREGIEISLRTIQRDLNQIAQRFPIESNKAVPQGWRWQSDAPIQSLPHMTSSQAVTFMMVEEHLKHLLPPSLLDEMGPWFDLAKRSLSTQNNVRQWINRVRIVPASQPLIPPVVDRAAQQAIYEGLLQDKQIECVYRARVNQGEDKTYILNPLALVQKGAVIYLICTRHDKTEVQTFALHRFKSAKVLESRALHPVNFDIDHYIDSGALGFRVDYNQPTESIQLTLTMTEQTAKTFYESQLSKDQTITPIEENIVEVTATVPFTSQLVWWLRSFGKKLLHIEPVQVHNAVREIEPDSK
Put plainly: EMSA. (In general: Mobility shift assays separate free from complexed probe on a gel.)

B1: recA promoter WT (FAM-AR-DDRM) (dsDNA)
DNA 1: TTTCCGGTCTGGGCGACACAATATGACGTGTAATTTTAACC
DNA 2: GGTTAAAATTACACGTCATATTGTGTCGCCCAGACCGGAAA
Take B1: the binding result is listed as “binds”.
